Consider two molecules from PMC11865535 (Nature Communications, 2025).

The test concerns the target CUL1^FlAsH preassembled with SKP1·SKP2 (UniProt Q13616;P62877;P63208;Q13309, FlAsH fluorophore on the C-terminal tetracysteine tag). Nature of the test: FRET or BRET.

CUL1^FlAsH preassembled with SKP1·SKP2, sequence (Q13616 whole entry, chain 1 of 3): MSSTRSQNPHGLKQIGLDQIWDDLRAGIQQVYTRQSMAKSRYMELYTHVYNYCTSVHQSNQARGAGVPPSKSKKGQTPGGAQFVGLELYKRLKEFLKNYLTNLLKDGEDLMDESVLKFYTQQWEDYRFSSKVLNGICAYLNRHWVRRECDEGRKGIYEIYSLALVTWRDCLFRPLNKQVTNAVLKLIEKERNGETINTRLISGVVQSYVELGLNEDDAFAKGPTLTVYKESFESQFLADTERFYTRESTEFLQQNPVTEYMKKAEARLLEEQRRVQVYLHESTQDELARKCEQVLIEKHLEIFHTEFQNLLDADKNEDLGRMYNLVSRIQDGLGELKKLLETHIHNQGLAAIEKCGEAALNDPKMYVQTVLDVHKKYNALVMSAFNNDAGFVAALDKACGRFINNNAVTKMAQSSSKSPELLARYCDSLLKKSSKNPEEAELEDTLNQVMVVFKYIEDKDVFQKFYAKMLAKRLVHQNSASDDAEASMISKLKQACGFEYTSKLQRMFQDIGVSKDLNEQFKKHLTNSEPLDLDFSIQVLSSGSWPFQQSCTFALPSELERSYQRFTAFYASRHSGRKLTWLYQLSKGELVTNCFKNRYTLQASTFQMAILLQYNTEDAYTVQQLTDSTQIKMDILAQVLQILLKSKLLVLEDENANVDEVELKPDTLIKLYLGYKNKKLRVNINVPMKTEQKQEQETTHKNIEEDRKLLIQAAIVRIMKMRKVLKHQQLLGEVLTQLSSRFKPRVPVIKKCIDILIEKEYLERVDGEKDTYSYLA
CUL1^FlAsH preassembled with SKP1·SKP2, sequence (P63208 whole entry, chain 3 of 3): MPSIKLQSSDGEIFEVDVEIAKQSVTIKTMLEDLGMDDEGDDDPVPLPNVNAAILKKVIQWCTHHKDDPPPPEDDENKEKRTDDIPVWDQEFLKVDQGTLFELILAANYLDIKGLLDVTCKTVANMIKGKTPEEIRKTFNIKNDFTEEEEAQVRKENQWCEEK
CUL1^FlAsH preassembled with SKP1·SKP2, sequence (Q13309 whole entry, chain 4 of 3): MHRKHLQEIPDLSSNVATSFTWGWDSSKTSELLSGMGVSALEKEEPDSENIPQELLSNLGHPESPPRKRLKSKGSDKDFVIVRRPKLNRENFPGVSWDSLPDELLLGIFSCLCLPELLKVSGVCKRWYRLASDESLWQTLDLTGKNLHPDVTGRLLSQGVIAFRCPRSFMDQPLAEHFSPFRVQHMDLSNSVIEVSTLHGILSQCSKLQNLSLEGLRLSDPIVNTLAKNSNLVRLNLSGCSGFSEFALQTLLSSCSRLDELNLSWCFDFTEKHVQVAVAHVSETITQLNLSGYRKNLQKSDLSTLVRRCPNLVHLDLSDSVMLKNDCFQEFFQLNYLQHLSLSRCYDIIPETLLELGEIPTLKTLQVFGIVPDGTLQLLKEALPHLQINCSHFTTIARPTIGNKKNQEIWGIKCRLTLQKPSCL

B1: ^CFPCAND1 (natural protein)
chain: MASASYHISNLLEKMTSSDKDFRFMATNDLMTELQKDSIKLDDDSERKVVKMILKLLEDKNGEVQNLAVKCLGPLVSKVKEYQVETIVDTLCTNMLSDKEQLRDISSIGLKTVIGELPPASSGSALAANVCKKITGRLTSAIAKQEDVSVQLEALDIMADMLSRQGGLLVNFHPSILTCLLPQLTSPRLAVRKRTIIALGHLVMSCGNIVFVDLIEHLLSELSKNDSMSTTRTYIQCIAAISRQAGHRIGEYLEKIIPLVVKFCNVDDDELREYCIQAFESFVRRCPKEVYPHVSTIINICLKYLTYDPNYNYDDEDEDENAMDADGGDDDDQGSDDEYSDDDDMSWKVRRAAAKCLDAVVSTRHEMLPEFYKTVSPALISRFKEREENVKADVFHAYLSLLKQTRPVQSWLCDPDAMEQGETPLTMLQSQVPNIVKALHKQMKEKSVKTRQCCFNMLTELVNVLPGALTQHIPVLVPGIIFSLNDKSSSSNLKIDALSCLYVILCNHSPQVFHPHVQALVPPVVACVGDPFYKITSEALLVTQQLVKVIRPLDQPSSFDATPYIKDLFTCTIKRLKAADIDQEVKERAISCMGQIICNLGDNLGSDLPNTLQIFLERLKNEITRLTTVKALTLIAGSPLKIDLRPVLGEGVPILASFLRKNQRALKLGTLSALDILIKNYSDSLTAAMIDAVLDELPPLISESDMHVSQMAISFLTTLAKVYPSSLSKISGSILNELIGLVRSPLLQGGALSAMLDFFQALVVTGTNNLGYMDLLRMLTGPVYSQSTALTHKQSYYSIAKCVAALTRACPKEGPAVVGQFIQDVKNSRSTDSIRLLALLSLGEVGHHIDLSGQLELKSVILEAFSSPSEEVKSAASYALGSISVGNLPEYLPFVLQEITSQPKRQYLLLHSLKEIISSASVVGLKPYVENIWALLLKHCECAEEGTRNVVAECLGKLTLIDPETLLPRLKGYLISGSSYARSSVVTAVKFTISDHPQPIDPLLKNCIGDFLKTLEDPDLNVRRVALVTFNSAAHNKPSLIRDLLDTVLPHLYNETKVRKELIREVEMGPFKHTVDDGLDIRKAAFECMYTLLDSCLDRLDIFEFLNHVEDGLKDHYDIKMLTFLMLVRLSTLCPSAVLQRLDRLVEPLRATCTTKVKANSVKQEFEKQDELKRSAMRAVAALLTIPEAEKSPLMSEFQSQISSNPELAAIFESIQKDSSSTNLESMDTS
By koff is commonly meant the rate constant with which the complex falls apart. Higher therefore signals fast dissociation. For B1, the koff was determined as 2.5 s⁻¹.

B2: ^CFPCAND2 (natural protein)
chain: MSTAAFHISSLLEKMTSSDKDFRFMATSDLMSELQKDSIQLDEDSERKVVKMLLRLLEDKNGEVQNLAVKCLGPLVVKVKEYQVETIVDTLCTNMRSDKEQLRDIAGIGLKTVLSELPPAATGSGLATNVCRKITGQLTSAIAQQEDVAVQLEALDILSDMLSRLGVPLGAFHASLLHCLLPQLSSPRLAVRKRAVGALGHLAAACSTDLFVELADHLLDRLPGPRVPTSPTAIRTLIQCLGSVGRQAGHRLGAHLDRLVPLVEDFCNLDDDELRESCLQAFEAFLRKCPKEMGPHVPNVTSLCLQYIKHDPNYNYDSDEDEEQMETEDSEFSEQESEDEYSDDDDMSWKVRRAAAKCIAALISSRPDLLPDFHCTLAPVLIRRFKEREENVKADVFTAYIVLLRQTQPPKGWLEAMEEPTQTGSNLHMLRGQVPLVVKALQRQLKDRSVRARQGCFSLLTELAGVLPGSLAEHMPVLVSGIIFSLADRSSSSTIRMDALAFLQGLLGTEPAEAFHPHLPILLPPVMACVADSFYKIAAEALVVLQELVRALWPLHRPRMLDPEPYVGEMSAVTLARLRATDLDQEVKERAISCMGHLVGHLGDRLGDDLEPTLLLLLDRLRNEITRLPAIKALTLVAVSPLQLDLQPILAEALHILASFLRKNQRALRLATLAALDALAQSQGLSLPPSAVQAVLAELPALVNESDMHVAQLAVDFLATVTQAQPASLVEVSGPVLSELLRLLRSPLLPAGVLAAAEGFLQALVGTRPPCVDYAKLISLLTAPVYEQAVDGGPGLHKQVFHSLARCVAALSAACPQEAASTASRLVCDARSPHSSTGVKVLAFLSLAEVGQVAGPGHQRELKAVLLEALGSPSEDVRAAASYALGRVGAGSLPDFLPFLLEQIEAEPRRQYLLLHSLREALGAAQPDSLKPYAEDIWALLFQRCEGAEEGTRGVVAECIGKLVLVNPSFLLPRLRKQLAAGRPHTRSTVITAVKFLISDQPHPIDPLLKSFIGEFMESLQDPDLNVRRATLAFFNSAVHNKPSLVRDLLDDILPLLYQETKIRRDLIREVEMGPFKHTVDDGLDVRKAAFECMYSLLESCLGQLDICEFLNHVEDGLKDHYDIRMLTFIMVARLATLCPAPVLQRVDRLIEPLRATCTAKVKAGSVKQEFEKQDELKRSAMRAVAALLTIPEVGKSPIMADFSSQIRSNPELAALFESIQKDSASAPSTDSMELS
The molecule B2 registered a koff of 4.4 s⁻¹.
